PMC5352738, “Characterization of three pyranose dehydrogenase isoforms from the litter-decomposing basidiomycete Leucoagaricus meleagris (syn. Agaricus meleagris)” (Applied Microbiology and Biotechnology, 2016)

System: CCn1c(=N[N]c2sc3cc(S(=O)(=O)O)ccc3[n+]2CC)sc2cc(S(=O)(=O)O)ccc21
Assay: purified protein
Details: pH 4.0; 30.0 °C

Substance | Km | kcat/Km
AmPDH1 (Macropsalliota meleagris) | 79.1 ± 9 µM | 94600 M⁻¹ s⁻¹
AmPDH2 (Macropsalliota meleagris) | 109 ± 10 µM | 38900 M⁻¹ s⁻¹
AmPDH3 (Macropsalliota meleagris) | 13.2 ± 1.2 µM | 532000 M⁻¹ s⁻¹
